According to article doi:10.1101/2020.04.05.026310 (bioRxiv, 2020):
Substitutions are numbered along the chain they refer to. In names and notes the source's numbering stands.

B1: mouse pyridoxal kinase (mPDXK), wild type (enzyme, UniProt Q8K183 1-312, looked up)
chain: MEGECRVLSIQSHVVRGYVGNRAAMFPLQVLGFEVDAVNSVQFSNHTGYAHWKGQVLKSQELHELYEGLKVNDVNKYDYVLTGYTRDKSFLAMVVDIVRELKQQNSRLVYVCDPVMGDKWNGEGSMYVPQDLLPVYRDKVVPVADIITPNQFEAELLSGRKIHSQEEAFEVMDMLHCMGPDTVVITSSDLPSSQGSDYLIALGSQRMRKPDGSTVTQRIRMEMRKVEAVFVGTGDLFAAMLLAWTHKHPDNLKVACEKTVSAMQHVLQRTIRCAKAEAGEGQKPSPAQLELRMVQSKRDIEDPEIVVQATVL
B2: mouse pyridoxal kinase (mPDXK) V41W (enzyme, UniProt Q8K183 1-312, looked up)
chain: B1 chain with V41W
B3: mouse pyridoxal kinase (mPDXK) F43R (enzyme, UniProt Q8K183 1-312, looked up)
chain: B1 chain with F43R
B4: mouse pyridoxal kinase (mPDXK) R86W (enzyme, UniProt Q8K183 1-312, looked up)
chain: B1 chain with R86W
B5: mouse pyridoxal kinase (mPDXK) V41W/F43R double mutant (enzyme, UniProt Q8K183 1-312, looked up)
chain: B1 chain with V41W, F43R

Biological target: the molecule itself
Test: SEC-MALS

Stoichiometry N, 2:
B1
B2
B3
B4
B5
